Usually stoichiometry N stands for the number of molecules, sites or subunits per partner or assembly.

From PMC4340663 come the findings set out here.

For assay [1], the target named is KNH1144 SOSIP gp140 trimer with the hexaarginine (R6) mutation (HIV-1 subtype A isolate KNH1144). Description: native gel or EMSA.
Assay [2] has the same target. The assay is described as follows: negative-stain electron microscopy.

Turning to “KNH1144 SOSIP gp140 trimer with the hexaarginine (R6) mutation (complex)”, the stoichiometry N in assay [1] is 3.

Regarding “four-domain soluble CD4 (domain or fragment)”, the stoichiometry N (molecules per trimer) in assay [1] and in assay [2] was 3 each time.

Substance “two-domain soluble CD4 (domain or fragment)” gave a stoichiometry N (molecules per trimer) in assay [1] of 3.
